This test addresses Deinococcus radiodurans RNase J, wild type, full-length (residues 1-559) (Deinococcus radiodurans). Nature of the test: SEC. A general note: SEC sorts molecules by how far they enter the pores of the column.

Usually stoichiometry N stands for a count of units in the complex or per binding partner. In the case of “Deinococcus radiodurans RNase J, wild type, full-length (residues 1-559) (enzyme)”, the stoichiometry N came to 2.
